Laboratory results reported in the supplement of paper PMC7877785.
± gives the uncertainty stated by the source.

Assay: self-splicing fitness, log relative to wild type (ln ratio); higher = more splicing; Tetrahymena group I intron in knt gene, E. coli kanamycin selection, DiMSum; sequences stand for … in CUCUCU…GGAGGGAAAAGUUAUCAGGCAUGCACCUGGUAGCUAGUCUUUAAACCAAUAGAUUGCAUCGGUUUAAAAGGCAAGACCGUCAAAUUGCGGGAAAGGGGUCAACAGCCGUUCAGUACCAAGUCUCAGGGGAAACUUUGAGAUGGCCUUGCAAAGGGUAUGGUAAUAAGCUGACGGACAUGGUCCUAACCACGCAGCCAAGUCCUAAGUCAACAGAUCUUCUGUUGAUAUGGAUGCAGUUCACAGACUAAAUGUCGGUCGGGGAAGAUGUAUUCUUCUCAUAAGAUAUAGUCGGACCUCUCCUUAAUGGGAGCUAGCGGAUGAAGUGAUGCAACACUGGAGCCGCUGGGAACUAAUUUGUAUGCGAAAGUAUAUUGAUUAGUUUUGGAGUACUCGUGGUCG
Summary of the method: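 Colonies from six replicate transformations of E. coli BL21(DE3) were pooled and amplicon-sequenced on an Illumina HiSeq 2500. The library placed an intron with all eight P1ex-region nucleotides randomised inside the knt kanamycin-resistance gene on pET-22b(+), and cells grew overnight at 37°C or 30°C on LB agar with or without 25 μg/mL kanamycin (plus 100 μg/mL carbenicillin, 50 μM IPTG, 0.2% rhamnose). Fitness is the DiMSum error-weighted combination of wild-type-normalised replicate fold changes, kanamycin versus none.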

| Sequence | self-splicing fitness (ln) (30 °C) | self-splicing fitness (ln) (37 °C) |
| --- | --- | --- |
| UUUAAGCAAUAUUACGCUAU | -2.94 ± 0.27 | -0.849 ± 0.21 |
| CCGUAGCAAUAUUACGCGGU | -3.13 ± 0.27 | -2.38 ± 0.3 |
| CCUCAGCAAUAUUACGUCCG | -1.86 ± 0.072 | -0.0776 ± 0.11 |
| AUCCAGCAAUAUUACGUACC | -2 ± 0.17 | -0.552 ± 0.32 |
| AAAGAGCAAUAUUACGAGCG | -2.08 ± 0.21 | -2.17 ± 0.24 |
| UAACAGCAAUAUUACGCGUU | -3.66 ± 0.1 | -3.01 ± 0.13 |
| AGAGAGCAAUAUUACGGUGG | -2.76 ± 0.23 | -3.44 ± 0.37 |
| AAUUAGCAAUAUUACGAGAU | -2.7 ± 0.17 | -2.16 ± 0.17 |
| GCAGAGCAAUAUUACGCAAU | – | -1.61 ± 0.28 |
| AUAUAGCAAUAUUACGUUUG | -2.71 ± 0.23 | -2.21 ± 0.26 |
| GCCGAGCAAUAUUACGCUCC | -0.576 ± 0.44 | – |
| CGUCAGCAAUAUUACGAAGC | – | -2.3 ± 0.5 |
| UGGAAGCAAUAUUACGCGAA | -1.68 ± 0.16 | -1.03 ± 0.15 |
| AUUUAGCAAUAUUACGGUAU | -1.51 ± 0.088 | -0.753 ± 0.089 |
| CGACAGCAAUAUUACGAGCA | -2.11 ± 0.18 | -1.26 ± 0.16 |
| AUUAAGCAAUAUUACGAGCC | – | -1.69 ± 0.28 |
| GCUGAGCAAUAUUACGCUCU | -1.12 ± 0.17 | -0.769 ± 0.2 |
| UAGUAGCAAUAUUACGGAAA | – | -1.49 ± 0.3 |
| AAUGAGCAAUAUUACGUCUG | -2.92 ± 0.15 | -3 ± 0.21 |
| CUCAAGCAAUAUUACGGUCG | -1.96 ± 0.098 | -1.19 ± 0.12 |
| UAAUAGCAAUAUUACGGCUC | -2.37 ± 0.23 | -0.201 ± 0.23 |

| Sequence | self-splicing fitness (ln) (30 °C) | self-splicing fitness (ln) (37 °C) |
| --- | --- | --- |
| GUUAAGCAAUAUUACGUGAC | -1.93 ± 0.24 | -2.56 ± 0.37 |
| GCUAAGCAAUAUUACGAUAU | -0.896 ± 0.066 | -0.164 ± 0.094 |
| AUUAAGCAAUAUUACGCAAG | -1.32 ± 0.14 | -1.27 ± 0.16 |
| GGUUAGCAAUAUUACGACGC | 0.551 ± 0.17 | 0.289 ± 0.16 |
| UUCUAGCAAUAUUACGUUAU | -1.76 ± 0.26 | -2.14 ± 0.27 |
| GCGAAGCAAUAUUACGAUUA | -1.52 ± 0.3 | -0.0699 ± 0.23 |
| UCUUAGCAAUAUUACGUUUU | – | -1.8 ± 0.23 |
| GAAAAGCAAUAUUACGCCAC | -5.15 ± 0.38 | -2.7 ± 0.36 |
| UCACAGCAAUAUUACGUCUC | -3.42 ± 0.25 | -1.77 ± 0.2 |
| UGUCAGCAAUAUUACGGUGA | -0.413 ± 0.094 | -0.355 ± 0.12 |
| AGUCAGCAAUAUUACGGCGA | -0.359 ± 0.091 | 0.00759 ± 0.14 |
| GGGAAGCAAUAUUACGCCGG | -3.75 ± 0.29 | – |
| GGCUAGCAAUAUUACGCAGU | -1.78 ± 0.34 | – |
| AGUUAGCAAUAUUACGAUUG | -3.3 ± 0.27 | -1.84 ± 0.24 |
| GCAGAGCAAUAUUACGUCAA | -2.73 ± 0.45 | – |
| CGAAAGCAAUAUUACGAGGC | -3.72 ± 0.2 | -1.88 ± 0.21 |
| UCUUAGCAAUAUUACGAAUU | – | -2.06 ± 0.24 |
| GACAAGCAAUAUUACGAAUC | -2.49 ± 0.12 | -2.53 ± 0.16 |
| UGUGAGCAAUAUUACGGAGA | -3.34 ± 0.28 | -2.29 ± 0.31 |
| ACCCAGCAAUAUUACGGGAC | -2.71 ± 0.1 | -1.54 ± 0.1 |
